Results reported in patent US20060148055A1 (published 2006).
No end group written: not given here. MDA = malondialdehyde

B1: multiple antigenic peptide SEQ ID NO: 1 MDA-conjugated (mapped peptide) (peptide)
peptide: ALQYKLEGTTR
modifications: also: multiple antigenic peptide, branching core and copy number not given here, MDA-conjugated, site not given here

biological target: scavenger LDL receptor in monocytes; assay: cell-based or functional assay

Binder	Mean fluorescence (Ex 520 nm, Em 590 nm) of DiI-labelled oxidised LDL (50 ug) taken up by lipid-starved U937 monocytes with 500 ug peptide as competitor; oxidised LDL alone 3433, Control 1657
B1	2610 fluorescence (unit not printed)
RLTRKRGLKLA [peptide SEQ ID NO: 2]	1410 fluorescence (unit not printed)
ALSLSNK(MDA)FVEG [peptide SEQ ID NO: 3 MDA-conjugated]	2000 fluorescence (unit not printed)
ALSLSNKFVEG [peptide SEQ ID NO: 3]	1760 fluorescence (unit not printed)
ALQYK(MDA)LEGTTR (not fully specified) [peptide SEQ ID NO: 1 MDA-conjugated]	2130 fluorescence (unit not printed)
RLTRK(MDA)RGLKLA [peptide SEQ ID NO: 2 MDA-conjugated]	2450 fluorescence (unit not printed)
